The values below come from patent publication US20120276102A1 (Pfizer, published 2012).

The target of experiment [1] is T1, human IL-21R extracellular domain His-Flag fusion protein (human, UniProt Q9HBE5 20-232).
T1 construct: Biotinylated in the HTRF screen; also called hIL-21R-H/F; human IL-21R-H/F
The experiment in a line: SPR, Ab captured on anti-human IgG, replicate experiment; Table 7B, human IL-21R-His/FLAG. How it is done: The kinetics of binding of anti-IL-21R antibodies to human and murine IL-21R-H/F was tested on a BIACORE™ surface plasmon resonance instrument. Anti-human IgG antibodies (Invitrogen Corporation) were immobilized onto a research-grade carboxy-methyl-dextran chip (CM5) using standard amine coupling. The surface was activated with EDC/NHS for 7 min at a flow of 20 μl/min. The first flow cell was used as a reference surface to correct for bulk refractive index, matrix effects, and nonspecific binding. The anti-human-Fc antibody was diluted to 20 μg/ml in 10 mM sodium acetate buffer (pH 5.0), and 2950-3405 resonance units (RU) were captured on each of the four flow cells. Remaining activated groups were blocked with 1.0 M ethanolamine-HCl (pH 8.5).
Anti-IL-21R antibodies were diluted to 0.1-0.2 μg/ml in HBS/EP buffer supplemented with 0.2% bovine serum albumin and loaded onto the BIACORE™ chip. Following a brief washing period, solutions of 0-100 nM human IL-21R-H/F or 10-500 nM murine IL-21R-H/F were injected over the chip at a flow rate of 50 μl/min. The association phase was run for 3 min for human and murine IL-21R kinetics, and the dissociation phase was monitored for 15 min for hIL-21R and for 5 min for mIL-21R, followed by two 10 μl injections and one 30 μl injection of glycine (pH 1.5), to regenerate a fully active capturing surface. […]

For the next experiment, the target named is T2, human IL-2Rβ (human, UniProt P14784 27-239).
T2 sequence (looked up): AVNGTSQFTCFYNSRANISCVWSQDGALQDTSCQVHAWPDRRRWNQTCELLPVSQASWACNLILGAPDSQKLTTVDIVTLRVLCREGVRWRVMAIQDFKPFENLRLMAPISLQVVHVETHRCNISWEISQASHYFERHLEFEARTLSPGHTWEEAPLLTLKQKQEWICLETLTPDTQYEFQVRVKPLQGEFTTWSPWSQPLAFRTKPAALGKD
The experiment in a line: SPR, Ab captured. A digest of the protocol: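 SPR at 25 °C in HBS/EP: antibodies from conditioned media captured (500-700 RU) on amine-coupled anti-human IgG or anti-murine Ig on CM5 chip. 50 nM analyte injected, association 120 s and dissociation 180 s; glycine pH 1.5 regeneration, double-referenced sensorgrams.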
(In general: Surface plasmon resonance follows binding to a sensor surface in real time, without labels.)

T1 sequence (Q9HBE5 20-232): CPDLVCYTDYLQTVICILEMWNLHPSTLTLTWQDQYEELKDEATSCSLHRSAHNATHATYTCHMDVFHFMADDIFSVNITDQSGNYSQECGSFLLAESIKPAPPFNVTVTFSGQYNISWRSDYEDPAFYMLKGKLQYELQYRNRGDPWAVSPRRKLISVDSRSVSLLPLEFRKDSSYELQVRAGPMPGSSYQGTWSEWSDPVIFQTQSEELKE

B1: AbQ (antibody, human IgG1, V domains shown)
VH: QVQLQESGPGLVKPSETLSLTCAVSGYSISSGYYWGWIRQPPGKGLEWIGSISHTGNTYYNPPLKSRVTISVDTSKNQFSLKLSSVTAADTAVYYCARFMGFGRPEYWGQGTLVTVSS
VL: SSELTQDPAVSVALGQTVRITCQGDSLRTYYASWYQQKPGQAPVLVIYGKHKRPSGIPDRFSGSSSGNTASLTITGAQAEDEADYYCVARSVVGNPHVLFGGGTQLTVL
notes: CDR3 graft, residue limits derived as for m29; also called VH3/VL2; VH3DM/VL2
The molecule B1 yielded a kon in experiment [1] of 439000 M⁻¹ s⁻¹.

B2: parental 18A5 antibody (antibody, V domains shown)
VH: QVQLQESGPGLVKTSETLSLTCAVSGYSISSGYYWGWIRQPPGKGLEWIGSISHTGNTYYNPPLKSRVTISVDTSKNQFSLKLSSVTAADTAVYYCARGGGISRPEYWGKGTLVTVSS
VL: SSELTQDPPVSVALGQTVTLTCQGDSLRTYYASWYQQKSGQAPILLLYGKHKRPSGIPDRFSGSTSGDTASLTITGAQAEDEADYYCNSRDSSGNPHVLFGGGTQLTVL
notes: also called 18A5 IgG
As to B2, the binding result with human IL-2Rβ is listed as “no binding (tested: 50 nM)”.

The term kon denotes a measure of how fast the partners come together. A low value points to slower complex formation.
